For 4 molecules, Kd results are on record in patent US20150315296A1 (Hoffmann-La Roche, published 2015).

Sequences and labels used below:
B1: xFab-Fab<ANG2-VEGF>-uncharged (Ang2VEGF-0452) (bispecific antibody)
light 1: QPGLTQPPSVSVAPGQTARITCGGNNIGSKSVHWYQQKPGQAPVLVVYDDSDRPSGIPERFSGSNSGNTATLTISRVEAGDEADYYCQVWDSSSDHYVFGTGTKVTVLRTVAAPSVFIFPPSDEQLKSGTASVVCLLNNFYPREAKVQWKVDNALQSGNSQESVTEQDSKDSTYSLSSTLTLSKADYEKHKVYACEVTHQGLSSPVTKSFNRGEC
heavy: not shown
light 2: EVQLVESGGGLVQPGGSLRLSCAASGYTFTNYGMNWVRQAPGKGLEWVGWINTYTGEPTYAADFKRRFTFSLDTSKSTAYLQMNSLRAEDTAVYYCAKYPHYYGSSHWYFDVWGQGTLVTVSSASVAAPSVFIFPPSDEQLKSGTASVVCLLNNFYPREAKVQWKVDNALQSGNSQESVTEQDSKDSTYSLSSTLTLSKADYEKHKVYACEVTHQGLSSPVTKSFNRGEC
notes: Bivalent, Fc-free CrossFab(VH-VL)-Fab format
B2: xFab2-Fab<ANG2-VEGF>-uncharged (Ang2VEGF-0453) (bispecific antibody)
light 1: B1 light 1
heavy: not shown
light 2: B1 light 2
notes: Trivalent, Fc-free (CrossFab VH-VL)2-Fab format
B3: xFab2-Fab<ANG2-VEGF>-charged (Ang2VEGF-0448) (bispecific antibody)
light 1: B1 light 1 with E124K, Q125R
heavy: not shown
light 2: B1 light 2
notes: as for B2
B4: xFab-Fab<ANG2-VEGF>-charged (Ang2VEGF-0447) (bispecific antibody)
light 1: B1 light 1 with E124K, Q125R
heavy: not shown
light 2: B1 light 2
notes: as for B1

Positions count from the first letter of the chain named.

The first experiment addresses T1, human Ang-2-RBD-Fc (human, UniProt O15123 275-496, limits assumed).
T1 construct: domain: RBD; not shown: Fc part
T1 sequence (looked up): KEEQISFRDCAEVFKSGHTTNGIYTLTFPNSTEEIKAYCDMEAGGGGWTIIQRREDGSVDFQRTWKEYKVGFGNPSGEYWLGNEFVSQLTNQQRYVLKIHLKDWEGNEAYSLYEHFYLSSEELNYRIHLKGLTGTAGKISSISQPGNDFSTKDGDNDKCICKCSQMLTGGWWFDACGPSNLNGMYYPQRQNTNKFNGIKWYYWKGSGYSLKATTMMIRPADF
Put plainly: SPR (Biacore T200), antibody captured by anti-human F(ab')2, Ang2-RBD-Fc in solution, 25 C, apparent KD, 1:1 Langmuir. How it is done: (§1) Binding of indicated antibodies to human Ang-2-RBD-Fc was investigated by surface plasmon resonance using a BIACORE® T200 instrument (GE Healthcare). Around 8000 (RU) of goat anti human F(ab′)₂ (10 μg/ml anti human F(ab)′₂; Order Code: 28958325; GE Healthcare Bio-Sciences AB, Sweden) were coupled on a Series S CM5 chip (GE Healthcare BR-1005-30) at pH 5.0 by using an amine coupling kit supplied by the GE Healthcare. HBS-N(10 mM HEPES, 150 mM NaCl pH 7.4, GE Healthcare) was used as running buffer during the immobilization procedure. For the following kinetic characterization, sample and running buffer was PBS-T (10 mM phosphate buffered saline including 0.05% Tween20) at pH 7.4. The flow cell was set to 25° C.—and the sample block set to 12° C.—and primed with running buffer twice prior to kinetic characterization.
The bispecific antibody was captured by injecting a 5 nM solution for 25 sec at a flow of 5 μl/min. The association was measured by injection of human Ang2-RBD-Fc in various concentrations in solution for 120 sec at a flow of 30 μl/min starting with 100 nM in 1:3 serial dilutions. The dissociation phase was monitored for up to 180 sec and triggered by switching from the sample solution to running buffer. The surface was regenerated by 60 sec washing with a Glycine pH 2.1 solution at a flow rate of 30 μl/min Bulk refractive index differences were corrected by subtracting the response obtained from a goat anti human F(ab′)₂ surface. Blank injections are also subtracted (=double referencing). For calculation of apparent KD and other kinetic parameters the Langmuir 1:1 model was used.
A general note: SPR reads the build-up and loss of mass on a sensor chip optically.
For the molecule B1, the Kd was found to be 3 nM.

Take B2: the Kd is 5 nM.

As for B3, the Kd is 4 nM.

As to B4, the Kd was 3 nM.

The next experiment addresses T2, human VEGFA-121-His (human, UniProt P15692-9 27-147).
T2 construct: also called VEFGA-121-His; not shown: His tag
T2 sequence (looked up): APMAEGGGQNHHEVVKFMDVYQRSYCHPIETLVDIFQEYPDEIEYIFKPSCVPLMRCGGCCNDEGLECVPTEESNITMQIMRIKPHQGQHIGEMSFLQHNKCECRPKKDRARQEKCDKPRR
Description: SPR (Biacore T200), VEGFA-121-His amine-coupled on C1 chip, antibody in solution, 25 C, 1:1 Langmuir. As to the method: as §1, with “VEGFA-121” for “Ang-2-RBD-Fc”, “Aim for 50 RU” for “Around 8000 (RU)”, “VEFGA-121-His” for “goat anti human F(ab′)₂ (10 μg/ml anti human F(ab)′₂; Order Code: 28958325; GE Healthcare Bio-Sciences AB, Sweden)”, “C1” for “CM5”, “BR-1005-35)” for “BR-1005-30)”
The association was measured by injection the indicated antibody in various concentrations in solution for 180 sec at a flow of 30 μl/min starting with 100 nM in 1:3 serial dilutions. The dissociation phase was monitored for up to 300 sec and triggered by switching from the sample solution to running buffer. The surface was regenerated by 30 sec washing with a 0.85% H₃PO₄ (phosphoric acid) solution at a flow rate of 30 μl/min Bulk refractive index differences were corrected by subtracting the response obtained from a anti His antibody surface. Blank injections are also subtracted (=double referencing). For calculation of KD and other kinetic parameters the Langmuir 1:1 model was used.
With B1, the Kd stood at 0.35 nM.

The molecule B2 came in with a Kd of 0.22 nM.

Molecule B3 registered a Kd of 0.18 nM.

Consider B4, for which the Kd came out at 0.36 nM.
